Substitutions are numbered along the chain they refer to. Where two headings read alike, the source gives them in different places. *1 amine or outer side, *2 acyl side, *3 side chain or, on linkers, in order; H or OH if unused. Where no end group is shown, it is not given here. Side-chain parts run from the residue outwards. [ ]: non-standard residue; d: D form. The star is where a group is joined. C20 diacid = O=C(O)CCCCCCCCCCCCCCCCCCC(=O)*; C18 diacid = O=C(O)CCCCCCCCCCCCCCCCC(=O)*; γGlu = O=C(O)[C@H](CCC(=O)[*:2])N[*:1]; εLys = N[C@@H](CCCCN[*:1])C(=O)[*:2]; TRX = not defined here; Aib = CC(C)(N)C(=O)O
T1: hGIPR (Homo sapiens, UniProt P48546)
T1 construct: expressed in transfected cells; host or cells: CHO CRE-luciferase reporter cells
T1 sequence (P48546 22-466): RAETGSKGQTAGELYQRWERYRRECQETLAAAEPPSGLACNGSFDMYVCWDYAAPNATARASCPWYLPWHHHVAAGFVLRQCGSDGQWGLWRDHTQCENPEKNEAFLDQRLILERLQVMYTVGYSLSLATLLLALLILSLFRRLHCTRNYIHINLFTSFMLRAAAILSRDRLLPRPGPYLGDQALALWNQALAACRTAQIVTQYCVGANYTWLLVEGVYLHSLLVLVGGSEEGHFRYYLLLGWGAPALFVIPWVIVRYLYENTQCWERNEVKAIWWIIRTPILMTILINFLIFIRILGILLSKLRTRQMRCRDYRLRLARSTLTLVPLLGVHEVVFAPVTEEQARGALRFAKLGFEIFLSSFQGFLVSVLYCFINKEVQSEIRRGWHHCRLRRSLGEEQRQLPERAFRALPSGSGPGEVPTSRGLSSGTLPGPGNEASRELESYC

T2: human neuropeptide Y2 receptor (human, UniProt P49146 1-381)
T2 sequence (looked up): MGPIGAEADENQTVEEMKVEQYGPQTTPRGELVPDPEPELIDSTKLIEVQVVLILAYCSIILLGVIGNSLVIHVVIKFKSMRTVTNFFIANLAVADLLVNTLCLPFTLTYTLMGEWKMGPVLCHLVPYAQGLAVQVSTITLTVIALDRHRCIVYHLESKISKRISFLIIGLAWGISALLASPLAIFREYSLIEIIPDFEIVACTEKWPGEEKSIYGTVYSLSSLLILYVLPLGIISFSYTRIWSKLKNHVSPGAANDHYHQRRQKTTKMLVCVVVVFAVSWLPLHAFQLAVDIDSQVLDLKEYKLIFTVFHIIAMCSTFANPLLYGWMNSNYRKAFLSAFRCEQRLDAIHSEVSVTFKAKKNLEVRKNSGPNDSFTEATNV

T3: human GIP receptor (human, UniProt P48546 22-466)
T3 sequence (looked up): T1 sequence (P48546 22-466)

B1: Compound 17 (peptide)
peptide: YXEGTFTSDYSIXLEKQAQXAFVRHLINKXTRQRY
modifications: Aib at 2, 13, 20, 30; NMeQ at 33; Lys29 epsilon-amino acylated with C18DA-gGlu-gGlu-gGlu-gGlu-gGlu-gGlu-eLys; C-terminal amide
B2: Compound 20 (peptide)
peptide: B1 peptide with Y10L
modifications: Aib at 2, 13, 20, 30; Lys29 epsilon-amino acylated with C20DA-gGlu-gGlu-gGlu-gGlu-gGlu-gGlu-eLys; C-terminal amide
B3: Compound 24 (peptide)
peptide: B1 peptide with Q17I
modifications: Aib at 2, 13, 20, 30; Lys29 epsilon-amino acylated with C18DA-gGlu-gGlu-gGlu-gGlu-gGlu-gGlu-eLys; C-terminal amide
B4: Compound 39 (peptide)
peptide: B1 peptide with A21E, X30L
modifications: Aib at 2, 13, 20; Lys29 epsilon-amino acylated with C20DA-gGlu-gGlu-gGlu-gGlu-gGlu-gGlu-eLys; C-terminal amide
B5: Compound 4 (peptide)
peptide: B1 peptide with Q17A
modifications: Aib at 2, 13, 20, 30; Lys29 epsilon-amino acylated with C20DA-gGlu-gGlu-gGlu-gGlu-gGlu-gGlu-eLys; C-terminal amide

Legend:
[1] = Solubility in 0.1 M phosphate buffer at pH 7; type: physicochemical; conditions: 0.1 M phosphate buffer at pH 7, 10 mg/mL final peptide concentration, shaking 2 hours at room temperature, peptides as TFA-salts; measured sample pH 6.5-7.0
[2] = molecular target: T4, hGLP1R (Homo sapiens, UniProt P43220); assay: hGLP1R CreLuc assay in 0.5% and 100% plasma (HEK-293 CRE-luciferase reporter cells); type: cell-based; conditions: 0.5% human plasma, HEK-293 reporter cells, read-out: hGLP1R 0.5% hP
T4 construct: expressed in transfected cells; host or cells: HEK-293 CRE-luciferase reporter cells

[3] = molecular target: T1, hGIPR; assay: hGIPR CreLuc assay in 0.5% and 100% plasma (CHO CRE-luciferase reporter cells); type: cell-based
[4] = molecular target: T2, human neuropeptide Y2 receptor; assay: cell-based or functional assay
[5] = molecular target: T3, human GIP receptor; assay: cell-based or functional assay
[6] = 0.5% human plasma, read-out: hGIPR 0.5% hP

T4 sequence (P43220 24-463): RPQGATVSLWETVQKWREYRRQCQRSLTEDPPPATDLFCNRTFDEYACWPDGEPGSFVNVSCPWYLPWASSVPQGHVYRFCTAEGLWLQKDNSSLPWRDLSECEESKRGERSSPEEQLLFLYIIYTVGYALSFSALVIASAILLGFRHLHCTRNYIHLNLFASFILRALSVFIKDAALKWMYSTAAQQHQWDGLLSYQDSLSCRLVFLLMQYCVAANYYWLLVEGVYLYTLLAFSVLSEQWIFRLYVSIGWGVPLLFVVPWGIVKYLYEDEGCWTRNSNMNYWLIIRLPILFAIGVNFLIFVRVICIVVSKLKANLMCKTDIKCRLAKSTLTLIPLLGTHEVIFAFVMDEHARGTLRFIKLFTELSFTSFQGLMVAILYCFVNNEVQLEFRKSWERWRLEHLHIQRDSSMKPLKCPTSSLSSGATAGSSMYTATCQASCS

Molecule	EC50, CreLuc reporter, 0.5% hP [4] [nM]	EC50, CreLuc reporter, 100% hP [5] [nM]	EC50, CreLuc reporter, 0.5% hP [5] [nM]	EC50, CreLuc reporter, 100% hP [4] [nM]	also measured
CC[C@H](C)[C@H](NC(=O)[C@H](CO)NC(=O)[C@H](Cc1ccc(O)cc1)NC(=O)[C@H](CC(=O)O)NC(=O)[C@H](CO)NC(=O)[C@@H](NC(=O)[C@H](Cc1ccccc1)NC(=O)[C@@H](NC(=O)CNC(=O)[C@H](CCC(=O)O)NC(=O)C(C)(C)NC(=O)[C@@H](N)Cc1ccc(O)cc1)[C@@H](C)O)[C@@H](C)O)C(=O)N[C@@H](CCC(=O)O)C(=O)N[C@@H](CC(C)C)C(=O)N[C@@H](CCC(=O)O)C(=O)N[C@@H](CCCCN)C(=O)N[C@@H](CCC(N)=O)C(=O)N[C@@H](C)C(=O)N[C@@H](CCC(N)=O)C(=O)NC(C)(C)C(=O)N[C@@H](C)C(=O)N[C@@H](Cc1ccccc1)C(=O)N[C@H](C(=O)N[C@@H](CCCNC(=N)N)C(=O)N[C@@H](Cc1c[nH]cn1)C(=O)N[C@@H](CC(C)C)C(=O)N[C@H](C(=O)N[C@@H](CC(N)=O)C(=O)N[C@@H](CCCCNC(=O)[C@@H](N)CCCCNC(=O)CC[C@H](NC(=O)CC[C@H](NC(=O)CC[C@H](NC(=O)CC[C@H](NC(=O)CC[C@H](NC(=O)CC[C@H](NC(=O)CCCCCCCCCCCCCCCCC(=O)O)C(=O)O)C(=O)O)C(=O)O)C(=O)O)C(=O)O)C(=O)O)C(=O)NC(C)(C)C(=O)N[C@H](C(=O)N[C@@H](CCCNC(=N)N)C(=O)N[C@@H](CCC(N)=O)C(=O)N[C@@H](CCCNC(=N)N)C(=O)N[C@@H](Cc1ccc(O)cc1)C(N)=O)[C@@H](C)O)[C@@H](C)CC)C(C)C [Compound 160, Y-Aib-E-G-T-F-T-S-D-Y-S-I-E-L-E-K-Q-A-Q-Aib-A-F-V-R-H-L-I-N-K(1,3)-Aib-T-R-Q-R-Y-NH2.C18DA-gGlu-gGlu-gGlu-gGlu-gGlu-gGlu-eLys(1,2)]	–	–	–	–	solubility at 2 h [1]: 5200 µg/mL; EC50 [2]: 7.1 nM; EC50 [3, 6]: 0.4 nM
CC[C@H](C)[C@H](NC(=O)[C@H](CC(C)C)NC(=O)[C@H](Cc1c[nH]cn1)NC(=O)[C@H](CCCNC(=N)N)NC(=O)[C@@H](NC(=O)[C@H](Cc1ccccc1)NC(=O)[C@H](CCC(=O)O)NC(=O)C(C)(C)NC(=O)[C@H](CCC(N)=O)NC(=O)[C@H](C)NC(=O)[C@H](CCC(N)=O)NC(=O)[C@H](CCCCN)NC(=O)[C@H](CCC(=O)O)NC(=O)[C@H](CC(C)C)NC(=O)C(C)(C)NC(=O)[C@@H](NC(=O)[C@H](CO)NC(=O)[C@H](Cc1ccc(O)cc1)NC(=O)[C@H](CC(=O)O)NC(=O)[C@H](CO)NC(=O)[C@@H](NC(=O)[C@H](Cc1ccccc1)NC(=O)[C@@H](NC(=O)CNC(=O)[C@H](CCC(=O)O)NC(=O)C(C)(C)NC(=O)[C@@H](N)Cc1ccc(O)cc1)[C@@H](C)O)[C@@H](C)O)[C@@H](C)CC)C(C)C)C(=O)N[C@@H](CC(N)=O)C(=O)N[C@@H](CCCCNC(=O)[C@@H](N)CCCCNC(=O)CC[C@H](NC(=O)CC[C@H](NC(=O)CC[C@H](NC(=O)CC[C@H](NC(=O)CCCCCCCCCCCCCCCCC(=O)O)C(=O)O)C(=O)O)C(=O)O)C(=O)O)C(=O)NC(C)(C)C(=O)N[C@H](C(=O)N[C@@H](CCCNC(=N)N)C(=O)N[C@@H](CCC(N)=O)C(=O)N[C@@H](CCCNC(=N)N)C(=O)N[C@@H](Cc1ccc(O)cc1)C(N)=O)[C@@H](C)O [Compound 163, Y-Aib-E-G-T-F-T-S-D-Y-S-I-Aib-L-E-K-Q-A-Q-Aib-E-F-V-R-H-L-I-N-K(1,3)-Aib-T-R-Q-R-Y-NH2.C18DA-gGlu-gGlu-gGlu-gGlu-eLys(1,2)]	–	–	–	–	solubility at 2 h [1]: 5000 µg/mL; EC50 [2]: 0.1 nM; EC50 [3, 6]: 0.2 nM; EC50 ([3]; 100% human plasma, read-out: hGIPR 100% hP): 5.9 nM
B1	29.4	2	–	–	–
Y[Aib]EGTFTSDYSI[Aib]LEKQAQ[Aib]AFVRHLINK([εLys-γGlu-γGlu-γGlu-γGlu-γGlu-γGlu-γGlu-C18 diacid])ITRQRY-NH2 [Compound 18]	–	–	0.2	–	–
B2	–	–	0.4	–	–
B3	–	26.2	1	–	–
Y[Aib]EGTFTSDYSI[Aib]LEKQAQ[Aib]AFVRHLINK([γGlu-γGlu-γGlu-γGlu-γGlu-γGlu-TRX-C18 diacid])[Aib]TRQRY-NH2 (reading uncertain) [Compound 31]	76.4	14.9	–	131	–
Y[Aib]EGTFTSDYSI[Aib]LEKQAQ[Aib]EFVRHLINK([εLys-γGlu-γGlu-γGlu-γGlu-γGlu-γGlu-γGlu-C18 diacid])LTRQRY-NH2 [Compound 32]	17.1	6.5	0.5	44.6	–
Y[Aib]EGTFTSDYSI[Aib]LEKQAQ[Aib]AFVRHLINK([εLys-γGlu-γGlu-γGlu-γGlu-γGlu-γGlu-γGlu-C20 diacid])[Aib]TRQRY-NH2 [Compound 35]	22.9	–	0.7	–	–
B4	10.8	22.9	0.9	119	–
B5	17.7	11.5	0.3	194	–

Source: patent US20250382344A1, “Soluble GLP1/GIP/NPY2 Receptor Triple Agonists” (Boehringer Ingelheim International GmH, priority 2024, published 2025)
